# Measurements taken from US20260226187A1.
# What was measured:
# FcRn (human) = FcRn (human) (UniProt P55899); experiment: SPR, antibody immobilised, FcRn analyte, steady state model, pH 6.0
# FcγRIIIb (CD16b) (human) = FcγRIIIb (CD16b) (human) (UniProt O75015); experiment: SPR, His-captured FcγRIIIb (CD16b), antibody analyte, steady state model, HBS-EP+ (legend of FIG. 32; receptor printed as FcγRIIIa)
# FcγRI (CD64) (human) = FcγRI (CD64) (human) (UniProt P12314); experiment: SPR, His-captured FcγRI, antibody analyte, 1:1 model, PBST pH 7.4
# [1] = biological target: FcγRIIb/c (CD32b/c) (human) (UniProt P31994); experiment: SPR, His-captured FcγRIIb/c, antibody analyte, steady state model, HBS-EP+
# [2] = biological target: FcγRIIIa F158 (CD16a) (human) (UniProt P08637); experiment: SPR, His-captured FcγRIIIa F158, antibody analyte, steady state model, HBS-EP+ (FIG. 31)
# [3] = biological target: Cynomolgus EpCAM expressed on CHO cells (cynomolgus monkey); experiment: flow cytometry of CHO-cynoEpCAM cells stained with PE anti-hEpCAM clone 9C4, quantified with the QuantiBrite PE bead standard curve
# [4] = biological target: Human EpCAM expressed on cells (CHO-hEpCAM, HCT116) (human) (UniProt P16422); experiment: flow cytometry of CHO-hEpCAM cells stained with PE anti-hEpCAM clone 9C4, quantified with the QuantiBrite PE bead standard curve
# [5] = biological target: Human EpCAM expressed on cells (CHO-hEpCAM, HCT116) (human) (UniProt P16422); experiment: flow cytometry of HCT116 cells stained with PE anti-hEpCAM clone 9C4, quantified with the QuantiBrite PE bead standard curve
# Human EpCAM expressed on cells (CHO-hEpCAM, HCT116) (human), sequence (P16422 24-314): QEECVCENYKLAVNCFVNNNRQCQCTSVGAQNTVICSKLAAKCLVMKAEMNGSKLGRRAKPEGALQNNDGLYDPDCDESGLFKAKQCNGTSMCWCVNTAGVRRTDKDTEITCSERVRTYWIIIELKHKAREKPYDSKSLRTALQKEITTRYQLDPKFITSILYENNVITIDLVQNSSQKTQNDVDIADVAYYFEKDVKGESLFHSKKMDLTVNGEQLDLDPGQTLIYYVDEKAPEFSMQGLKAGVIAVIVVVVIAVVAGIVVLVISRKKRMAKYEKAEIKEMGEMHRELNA
# Cynomolgus EpCAM expressed on CHO cells (cynomolgus monkey), sequence (Q1WER1 24-314): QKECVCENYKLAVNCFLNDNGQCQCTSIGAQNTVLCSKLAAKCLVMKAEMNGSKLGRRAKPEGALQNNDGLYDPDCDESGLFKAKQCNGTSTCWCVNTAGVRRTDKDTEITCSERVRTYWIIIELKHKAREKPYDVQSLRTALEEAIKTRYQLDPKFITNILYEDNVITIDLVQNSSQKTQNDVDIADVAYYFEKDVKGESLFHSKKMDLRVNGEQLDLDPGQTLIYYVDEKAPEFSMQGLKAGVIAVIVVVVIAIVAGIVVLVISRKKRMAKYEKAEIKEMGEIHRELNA
# FcγRIIIb (CD16b) (human), sequence (O75015 17-200 limits assumed): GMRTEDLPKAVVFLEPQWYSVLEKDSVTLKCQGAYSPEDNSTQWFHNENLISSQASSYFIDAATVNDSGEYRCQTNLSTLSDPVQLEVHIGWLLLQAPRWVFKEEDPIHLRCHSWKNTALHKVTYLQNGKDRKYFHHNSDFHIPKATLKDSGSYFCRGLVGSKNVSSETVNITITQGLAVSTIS
# FcγRIIIa F158 (CD16a) (human), sequence (P08637 17-208): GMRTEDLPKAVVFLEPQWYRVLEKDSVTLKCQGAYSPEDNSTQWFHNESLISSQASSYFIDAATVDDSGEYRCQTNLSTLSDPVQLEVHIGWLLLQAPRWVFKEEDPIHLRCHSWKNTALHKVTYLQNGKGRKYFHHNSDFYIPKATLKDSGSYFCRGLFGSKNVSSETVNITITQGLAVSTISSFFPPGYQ
# FcγRI (CD64) (human), sequence (P12314 16-292): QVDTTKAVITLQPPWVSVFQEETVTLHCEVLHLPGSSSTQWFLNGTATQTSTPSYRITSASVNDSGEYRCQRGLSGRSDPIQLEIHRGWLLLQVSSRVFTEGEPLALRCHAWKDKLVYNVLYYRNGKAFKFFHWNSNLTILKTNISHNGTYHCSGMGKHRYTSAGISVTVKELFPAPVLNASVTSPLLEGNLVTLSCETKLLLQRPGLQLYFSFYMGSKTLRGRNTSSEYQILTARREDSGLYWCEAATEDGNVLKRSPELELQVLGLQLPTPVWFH
# FcγRIIb/c (CD32b/c) (human), sequence (P31994 43-217): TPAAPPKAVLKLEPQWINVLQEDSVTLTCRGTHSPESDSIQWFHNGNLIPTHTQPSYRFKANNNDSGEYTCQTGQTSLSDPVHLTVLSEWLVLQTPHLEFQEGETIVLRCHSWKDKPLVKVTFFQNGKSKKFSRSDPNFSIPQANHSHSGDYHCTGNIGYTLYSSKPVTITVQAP
Kd (FcRn (human)),Kd (FcγRIIIb (CD16b) (human)),Kd (FcγRI (CD64) (human)),Kd [1],Kd [2],Antibody per cell (Antibody per cell) [3],Antibody per cell (Antibody per cell) [4],Antibody per cell (Antibody per cell) [5],Substance
366 nM,6500 nM,1.18 nM,4200 nM,860 nM,–,–,–,IgG1-ctrl mAb (antibody)
–,–,–,–,–,231000,194000,412000,"Mouse anti-hEpCAM conjugated to PE, clone 9C4 (antibody)"
